Measured values reported in the supplement of paper PMC9233669.
Fewer inactive variants are shown than the library holds.

Legend:
biotinyl-Trp-oxazolone = test: self-aminoacylation, catalytic enhancement (BWO) (fold over background); higher = more active; k-Seq, kA / k0A0; sequences stand for … in GGGAAUGGAUCCACAUCUACGAAUUC…UUCACUGCAGACUUGACGAAGCUG
Method in brief: (§1)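 The uncatalyzed rate is the low-activity peak of a bimodal Gaussian fit, and catalytic enhancement is median kA divided by it. The kA values came from pseudo-first-order fits, with 1000 bootstraps, of per-sequence fraction reacted measured by streptavidin capture, triplicate qPCR and Illumina sequencing. Mutagenized RNA pools with a 21-nt variable region (0.43 μM) were reacted with each biotinyl-aminoacyl-oxazolone at 2–1250 μM in 50 μL HEPES/NaCl/KCl/MgCl2/CaCl2 buffer with 5% acetonitrile, pH 6.9–7.0, for 90 minutes at room temperature.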

biotinyl-Phe-oxazolone = test: self-aminoacylation, catalytic enhancement (BFO) (fold over background); higher = more active; k-Seq, kA / k0A0; sequences stand for … in GGGAAUGGAUCCACAUCUACGAAUUC…UUCACUGCAGACUUGACGAAGCUG
Method in brief: as §1

Sequence | self-aminoacylation (biotinyl-Trp-oxazolone) | self-aminoacylation (biotinyl-Phe-oxazolone)
CGGCACUUCAAGCAAUCGGUC [Fam1B.1 aminoacylation ribozyme variant] | 20.1 | 34.7
CUAAUUCAAACAAUCGGCCUG [Fam1A.1 aminoacylation ribozyme variant] | 3.89 | 5.4
CUAAUUCAAACAAUCGGUCUC [Fam1A.1 aminoacylation ribozyme variant] | 2.9 | 6.39
CUAAUUCAAACAAUCGGUCUG [Fam1A.1 aminoacylation ribozyme variant] | 3.52 | 7.13
CUACACUUCAACCAAUCGGUC [Fam1B.1 aminoacylation ribozyme variant] | 30 | 59.2
CUACACUUCAAGGAAUCGGUC [Fam1B.1 aminoacylation ribozyme variant] | 4.18 | 3.89
CUACACUUCAAGUAAUCGGUC [Fam1B.1 aminoacylation ribozyme variant] | 7.07 | 13.1
CUACGUCAAAAAAUCGGUCUG [Fam1A.1 aminoacylation ribozyme variant] | 2.35 | 5.5
CUACUUCAAACAAUCAGUCAG [Fam1A.1 aminoacylation ribozyme variant] | 2.43 | 6.15
CUACUUCAAACAAUCAGUCUG [Fam1A.1 aminoacylation ribozyme variant] | 9.7 | 27.8
CUACUUCAAACAAUCGGACUG [Fam1A.1 aminoacylation ribozyme variant] | 7.87 | 17.5
CUACUUCAAACAAUCGGUCCU [Fam1A.1 aminoacylation ribozyme variant] | 3.25 | 6.8
CUACUUCAAACAAUCGGUCGC [Fam1A.1 aminoacylation ribozyme variant] | 26.2 | 46.9
CUACUUCAAACAAUCGGUCUC [Fam1A.1 aminoacylation ribozyme variant] | 24.6 | 52.6
CUACUUCAAACAAUCGGUCUG [Fam1A.1 aminoacylation ribozyme variant] | 31.4 | 67.9
CUACUUCAAACAAUCGGUGUG [Fam1A.1 aminoacylation ribozyme variant] | 5.78 | 10.2

Sequence | self-aminoacylation (biotinyl-Trp-oxazolone) | self-aminoacylation (biotinyl-Phe-oxazolone)
CUACUUCAAACAAUCGGUUUA [Fam1A.1 aminoacylation ribozyme variant] | 2.11 | 4.11
CUACUUCAAAUAAUCGGACUG [Fam1A.1 aminoacylation ribozyme variant] | 2.71 | 6.03
CUACUUCAAAUAAUCGGUAUG [Fam1A.1 aminoacylation ribozyme variant] | 3.96 | 7.28
CUACUUCAACCAAUCGGUAUG [Fam1A.1 aminoacylation ribozyme variant] | 4.25 | 9.31
CUACUUCAAUAAAUCGGUCUG [Fam1A.1 aminoacylation ribozyme variant] | 4.71 | 7.8
CUACUUCAAUGAAUCGGUCUG [Fam1A.1 aminoacylation ribozyme variant] | 5.68 | 7.24
CUAUUUCAAACAAUCGGCCUG [Fam1A.1 aminoacylation ribozyme variant] | 6.15 | 6.32
CUCCUUCAAACAAUCAGUCUG [Fam1A.1 aminoacylation ribozyme variant] | 7.05 | 20
CUCCUUCAAACAAUCGGUGUG [Fam1A.1 aminoacylation ribozyme variant] | 6.8 | 8.49
CUGCACUUCAAGCAAUCGGUC [Fam1B.1 aminoacylation ribozyme variant] | 28.1 | 52
CUUCUUCAAACAAUCGGUCCG [Fam1A.1 aminoacylation ribozyme variant] | 2.74 | 3.96
GUACUUCAAACAAUCGGUAUG [Fam1A.1 aminoacylation ribozyme variant] | 9.84 | 11.5
UCAAACUUCAAGCAAUCGGUC [Fam1B.1 aminoacylation ribozyme variant] | 15.9 | 25.8
UUACUCCAAACAAUCGGUCUG [Fam1A.1 aminoacylation ribozyme variant] | 2.69 | 3.73
UUACUUCAAACAAUCGGUCUU [Fam1A.1 aminoacylation ribozyme variant] | 9.31 | 17
